# Measurements published in PMC7407374, “Addressing the Molecular Mechanism of Longitudinal Lamin Assembly Using Chimeric Fusions” (Cells, 2020).
# Experiments:
# [1] = molecular target: Gp7_(F40C)-LA 327-403 (bacteriophage φ29 | human) (UniProt P13848); test: SEC-MALS; inline MALS (Dawn Heleos) on Superdex 200 Increase 10/300 GL at 20 °C; individual proteins and 1:1 mixtures; 150 mM NaCl with 10 mM Hepes pH 7.5 or 10 mM TEA pH 7.0
# [2] = molecular target: the molecule itself; test: as above
Molecule,stoichiometry N [1],stoichiometry N [2]
Gp7_(F40C)-LA 327-403 (from UniProt P13848 1-49; P02545 327-403) (domain or fragment),2,–
"LA 17-70-Eb1 (domain or fragment, UniProt P02545 17-70, looked up, human lamin A, residues 17-70: truncated head domain, coil1A and the first three residues of linker L1; also called N-terminal fragment; N-terminal construct; source: E. coli Rosetta 2 (DE3) pLysS, purified (Ni column, tag cleavage, second Ni column, SEC); not shown: His6, N-terminal, cleaved; SUMO, N-terminal, cleaved) SSTPLSPTRITRLQEKEDLQELNDRLAVYIDRVRSLETENAGLRLRITESEEVVDFYFGKLRNIELICQENEGENDPVLQRIVDILYATDE",–,2
"LA 22-70-Eb1 (domain or fragment, UniProt P02545 22-70, looked up, human lamin A, residues 22-70: truncated head domain, coil1A and the first three residues of linker L1; also called N-terminal fragment; N-terminal construct; source: E. coli Rosetta 2 (DE3) pLysS, purified (Ni column, tag cleavage, second Ni column, SEC); not shown: His6, N-terminal, cleaved; SUMO, N-terminal, cleaved) SPTRITRLQEKEDLQELNDRLAVYIDRVRSLETENAGLRLRITESEEVVDFYFGKLRNIELICQENEGENDPVLQRIVDILYATDE",–,2
